Residue numbers refer to the chain shown, from its start. Values belong to the molecule of their own block, whether it stands above or below them.
Key:
[1] = target: mouse insulin receptor (mInsR, R&D Systems, Inc., Cat. No. 7544-MR) (mouse) (UniProt P15208); experiment: ELISA on mouse insulin receptor
[2] = target: Human Insulin Receptor protein fragment (Abcam cat #ab200510) (human) (UniProt P06213); experiment: ELISA on human insulin receptor fragment
[3] = target: Human Insulin Receptor protein fragment (Abcam cat #ab200510) (human) (UniProt P06213); experiment: ELISA on human insulin receptor fragment, relative to 83-14 mAb
[4] = target: T1, Human Insulin Receptor protein fragment (Abcam cat #ab200510) (human, UniProt P06213-2 28-944, limits assumed); experiment: as above
T1 construct: domain: extracellular domain of the alpha subunit; Bought fragment; also called HIR; extracellular domain of the alpha subunit of the human insulin receptor

[5] = target: T2, mouse insulin receptor (mInsR, R&D Systems, Inc., Cat. No. 7544-MR) (mouse, UniProt P15208 28-946, limits assumed); experiment: ELISA on mouse insulin receptor
T2 construct: extracellular domain; Bought protein; also called extracellular domain of the mouse insulin receptor

[6] = target: T1, Human Insulin Receptor protein fragment …; experiment: ELISA on human insulin receptor fragment

EC50 [1]: > 0.8 µg/mL
EC50 [2]: 0.0331 µg/mL
Receptor binding from antibody 83-14 mAb, % [3]: 100%
Molecule: Mouse Anti-Human Insulin Receptor Clone 83-14 mAb (Cell sciences, cat# MAI1) (antibody)

EC50 [1]: > 0.8 µg/mL
EC50 [2]: 0.0321 µg/mL
Receptor binding from antibody 83-14 mAb, % [3]: 102%
Molecule: INSR/Insulin Receptor alpha Antibody 83-14 (Life technologies, cat#AHR0221)

EC50 [1]: > 0.8 µg/mL
EC50 [2]: 0.0262 µg/mL
Receptor binding from antibody 83-14 mAb, % [3]: 126%
Molecule: HIR-MAB-IDS (antibody)

Receptor binding from antibody 83-14 mAb, % [4]: 27%
EC50 [5]: > 0.8 µg/mL
Receptor binding, % [5]: 0%
EC50 [6]: 0.121 µg/mL
B1: HIR-FAB-IDS (SEQ ID NO: 8 and SEQ ID NO: 12) (Fab)
light: DIQMTQSPSSLSASVGDRVTITCRASQDIGGNLYWYQQKPGKAPKLLIYATSSLDSGVPSRFSGSGSGTDFTLTISSLQPEDVATYYCLQYSSSPWTFGQGTKVEIKRTVAAPSVFIFPPSDEQLKSGTASVVCLLNNFYPREAKVQWKVDNALQSGNSQESVTEQDSKDSTYSLSSTLTLSKADYEKHKVYACEVTHQGLSSPVTKSFNRGEC
heavy: EVQLVESGGGLVQPGRSLRLSCAASGFTFTNYDIHWVRQAPGKGLEWVSWIYPGDGSTKYNEKFKGRFTISRDNAKNSLYLQMNSLRAEDTAVYYCAKEWAYWGQGTLVTVSSASTKGPSVFPLAPSSKSTSGGTAALGCLVKDYFPEPVTVSWNSGALTSGVHTFPAVLQSSGLYSLSSVVTVPSSSLGTQTYICNVNHKPSNTKVDKKVEPKSCDKTHLSSSETQANSTTDALNVLLIIVDDLRPSLGCYGDKLVRSPNIDQLASHSLLFQNAFAQQAVCAPSRVSFLTGRRPDTTRLYDFNSYWRVHAGNFSTIPQYFKENGYVTMSVGKVFHPGISSNHTDDSPYSWSFPPYHPSSEKYENTKTCRGPDGELHANLLCPVDVLDVPEGTLPDKQSTEQAIQLLEKMKTSASPFFLAVGYHKPHIPFRYPKEFQKLYPLENITLAPDPEVPDGLPPVAYNPWMDIRQREDVQALNISVPYGPIPVDFQRKIRQSYFASVSYLDTQVGRLLSALDDLQLANSTIIAFTSDHGWALGEHGEWAKYSNFDVATHVPLIFYVPGRTASLPEAGEKLFPYLDPFDSASQLMEPGRQSMDLVELVSLFPTLAGLAGLQVPPRCPVPSFHVELCREGKNLLKHFRFRDLEEDPYLPGNPRELIAYSQYPRPSDIPQWNSDKPSLKDIKIMGYSIRTIDYRYTVWVGFNPDEFLANFSDIHAGELYFVDSDPLQDHNMYNDSQGGDLFQLLMP
notes: Variant of the Fab-iduronate-2-sulfatase fusion

Receptor binding from antibody 83-14 mAb, % [4]: 55%
EC50 [5]: > 0.8 µg/mL
Receptor binding, % [5]: 0%
EC50 [6]: 0.0604 µg/mL
B2: HIR-FAB-IDS (SEQ ID NO: 9 and SEQ ID NO: 13) (Fab)
light: EIVLTQSPDFQSVTPKEKVTITCRASQDIGGNLYWYQQKPDQSPKLLIKATSSLDSGVPSRFSGSGSGTDFTLTINSLEAEDAAAYYCLQYSSSPWTFGPGTKVDIKRTVAAPSVFIFPPSDEQLKSGTASVVCLLNNFYPREAKVQWKVDNALQSGNSQESVTEQDSKDSTYSLSSTLTLSKADYEKHKVYACEVTHQGLSSPVTKSFNRGEC
heavy: B1 heavy with E1Q, L11V, T30S, S49A, A75S, S78T, S85G, K98R, K210R
notes: as for B1

Receptor binding from antibody 83-14 mAb, % [4]: 94%
EC50 [5]: > 0.8 µg/mL
Receptor binding, % [5]: 0%
EC50 [6]: 0.0351 µg/mL
B3: HIR-FAB-IDS (SEQ ID NO: 10 and SEQ ID NO: 14) (Fab)
light: B1 light with M4L, L46V, V83F
heavy: EVQLVESGGGLVQPGGSLRLSCAASGYDFTNYDIHWVRQAPGKGLEWVGWIYPGDGSTKYNEKFKGRFTFSLDTSKSTAYLQMNSLRAEDTAVYYCAKEWAYWGQGTLVTVSSASTKGPSVFPLAPSSKSTSGGTAALGCLVKDYFPEPVTVSWNSGALTSGVHTFPAVLQSSGLYSLSSVVTVPSSSLGTQTYICNVNHKPSNTKVDKKVEPKSCDKTHLSSSETQANSTTDALNVLLIIVDDLRPSLGCYGDKLVRSPNIDQLASHSLLFQNAFAQQAVCAPSRVSFLTGRRPDTTRLYDFNSYWRVHAGNFSTIPQYFKENGYVTMSVGKVFHPGISSNHTDDSPYSWSFPPYHPSSEKYENTKTCRGPDGELHANLLCPVDVLDVPEGTLPDKQSTEQAIQLLEKMKTSASPFFLAVGYHKPHIPFRYPKEFQKLYPLENITLAPDPEVPDGLPPVAYNPWMDIRQREDVQALNISVPYGPIPVDFQRKIRQSYFASVSYLDTQVGRLLSALDDLQLANSTIIAFTSDHGWALGEHGEWAKYSNFDVATHVPLIFYVPGRTASLPEAGEKLFPYLDPFDSASQLMEPGRQSMDLVELVSLFPTLAGLAGLQVPPRCPVPSFHVELCREGKNLLKHFRFRDLEEDPYLPGNPRELIAYSQYPRPSDIPQWNSDKPSLKDIKIMGYSIRTIDYRYTVWVGFNPDEFLANFSDIHAGELYFVDSDPLQDHNMYNDSQGGDLFQLLMP
notes: as for B1

Receptor binding from antibody 83-14 mAb, % [4]: 21%
EC50 [5]: > 0.8 µg/mL
Receptor binding, % [5]: 0%
EC50 [6]: 0.156 µg/mL
B4: HIR-FAB-IDS (SEQ ID NO: 11 and SEQ ID NO: 15) (Fab)
light: EIVLTQSPATLSLSPGERATLSCRASQDIGGNLYWYQQKPGQAPRLLIYATSSLDSGIPARFSGSGSGTDFTLTISSLEPEDFAVYYCLQYSSSPWTFGQGTRLEIKRTVAAPSVFIFPPSDEQLKSGTASVVCLLNNFYPREAKVQWKVDNALQSGNSQESVTEQDSKDSTYSLSSTLTLSKADYEKHKVYACEVTHQGLSSPVTKSFNRGEC
heavy: B1 heavy with T30N, N77K, V93L, L108T, S127G, K129S, S130K, T131S, S132T, G133S
notes: as for B1

Receptor binding from antibody 83-14 mAb, % [4]: 136%
EC50 [5]: > 0.8 µg/mL
Receptor binding, % [5]: 0%
EC50 [6]: 0.0243 µg/mL
B5: HIR-FAB-IDS (SEQ ID NO: 2 and SEQ ID NO: 4) (Fab)
light: DIQMTQSPSSLSASLGERVSLTCRASQDIGGNLYWLQQGPDGTIKRLIYATSSLDSGVPKRFSGSRSGSDYSLTISSLESEDFVDYYCLQYSSSPWTFGGGTKMEIKRTVAAPSVFIFPPSDEQLKSGTASVVCLLNNFYPREAKVQWKVDNALQSGNSQESVTEQDSKDSTYSLSSTLTLSKADYEKHKVYACEVTHQGLSSPVTKSFNRGEC
heavy: QVQLQQSGPELVKPGALVKISCKASGYTFTNYDIHWVKQRPGQGLEWIGWIYPGDGSTKYNEKFKGKATLTADKSSSTAYMHLSSLTSEKSAVYFCAREWAYWGQGTLVTVSAASTKGPSVFPLAPSSKSTSGGTAALGCLVKDYFPEPVTVSWNSGALTSGVHTFPAVLQSSGLYSLSSVVTVPSSSLGTQTYICNVNHKPSNTKVDKKVEPKSCDKTHLSSSETQANSTTDALNVLLIIVDDLRPSLGCYGDKLVRSPNIDQLASHSLLFQNAFAQQAVCAPSRVSFLTGRRPDTTRLYDFNSYWRVHAGNFSTIPQYFKENGYVTMSVGKVFHPGISSNHTDDSPYSWSFPPYHPSSEKYENTKTCRGPDGELHANLLCPVDVLDVPEGTLPDKQSTEQAIQLLEKMKTSASPFFLAVGYHKPHIPFRYPKEFQKLYPLENITLAPDPEVPDGLPPVAYNPWMDIRQREDVQALNISVPYGPIPVDFQRKIRQSYFASVSYLDTQVGRLLSALDDLQLANSTIIAFTSDHGWALGEHGEWAKYSNFDVATHVPLIFYVPGRTASLPEAGEKLFPYLDPFDSASQLMEPGRQSMDLVELVSLFPTLAGLAGLQVPPRCPVPSFHVELCREGKNLLKHFRFRDLEEDPYLPGNPRELIAYSQYPRPSDIPQWNSDKPSLKDIKIMGYSIRTIDYRYTVWVGFNPDEFLANFSDIHAGELYFVDSDPLQDHNMYNDSQGGDLFQLLMP
notes: Fab fragment of an IgG1 antibody to the human insulin receptor, fused to iduronate-2-sulfatase; also called rIDS-FAB-HI; rHI-FAB-IDS

Receptor binding from antibody 83-14 mAb, % [4]: 66%
EC50 [5]: > 0.8 µg/mL
Receptor binding, % [5]: 0%
EC50 [6]: 0.0503 µg/mL
B6: HIR-FAB-IDS (SEQ ID NO: 2 and SEQ ID NO: 5) (Fab)
light: B5 light
heavy: QVQLQQSGPELVKPGALVKISCKASGYTFTNYDIHWVKQRPGQGLEWIGWIYPGDGSTKYNEKFKGKATLTADKSSSTAYMHLSSLTSEKSAVYFCAREWAYWGQGTLVTVSAASTKGPSVFPLAPSSKSTSGGTAALGCLVKDYFPEPVTVSWNSGALTSGVHTFPAVLQSSGLYSLSSVVTVPSSSLGTQTYICNVNHKPSNTKVDKKVEPKSCDKTHGGGGSGGGGSGGGGSSETQANSTTDALNVLLIIVDDLRPSLGCYGDKLVRSPNIDQLASHSLLFQNAFAQQAVCAPSRVSFLTGRRPDTTRLYDFNSYWRVHAGNFSTIPQYFKENGYVTMSVGKVFHPGISSNHTDDSPYSWSFPPYHPSSEKYENTKTCRGPDGELHANLLCPVDVLDVPEGTLPDKQSTEQAIQLLEKMKTSASPFFLAVGYHKPHIPFRYPKEFQKLYPLENITLAPDPEVPDGLPPVAYNPWMDIRQREDVQALNISVPYGPIPVDFQRKIRQSYFASVSYLDTQVGRLLSALDDLQLANSTIIAFTSDHGWALGEHGEWAKYSNFDVATHVPLIFYVPGRTASLPEAGEKLFPYLDPFDSASQLMEPGRQSMDLVELVSLFPTLAGLAGLQVPPRCPVPSFHVELCREGKNLLKHFRFRDLEEDPYLPGNPRELIAYSQYPRPSDIPQWNSDKPSLKDIKIMGYSIRTIDYRYTVWVGFNPDEFLANFSDIHAGELYFVDSDPLQDHNMYNDSQGGDLFQLLMP
notes: as for B1
